Target: Soluble rat tail collagen Type I (UniProt P02454)

Chain of Histidine (His)-tagged purified recombinant human cathepsin-L (R&D Systems, Cat# 952-CY) (chain, as listed by the source): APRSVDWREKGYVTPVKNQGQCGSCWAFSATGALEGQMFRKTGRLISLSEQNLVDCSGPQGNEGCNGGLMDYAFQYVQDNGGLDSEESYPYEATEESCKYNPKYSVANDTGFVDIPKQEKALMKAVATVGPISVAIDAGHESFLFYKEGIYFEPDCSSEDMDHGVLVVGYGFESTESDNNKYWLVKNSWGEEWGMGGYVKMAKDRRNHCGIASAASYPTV
Chain of cathepsin D (R&D systems, activated) (chain, as listed by the source): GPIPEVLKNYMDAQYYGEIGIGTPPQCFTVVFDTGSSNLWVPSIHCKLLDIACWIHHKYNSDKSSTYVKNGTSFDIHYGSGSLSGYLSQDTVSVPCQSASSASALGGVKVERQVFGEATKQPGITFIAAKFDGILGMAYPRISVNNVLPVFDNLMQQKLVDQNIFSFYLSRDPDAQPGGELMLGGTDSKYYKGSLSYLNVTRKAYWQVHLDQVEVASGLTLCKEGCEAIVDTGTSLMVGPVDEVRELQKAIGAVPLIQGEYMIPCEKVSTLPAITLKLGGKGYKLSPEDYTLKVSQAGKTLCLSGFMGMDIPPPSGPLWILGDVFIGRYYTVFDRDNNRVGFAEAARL

Substance	degradation of soluble rat tail collagen Type I (1 hour at 37° C., SDS-Page gels, Coomassie Blue staining)
Bacterial collagenase (Sigma Chemicals)	bacterial collagenase degraded rat collagen at both pH 5.0 and pH 8.0
cathepsin B (R&D systems, activated)	Cathepsins B, D and S showed some slight degradation of rat collagen at the manufacture specified pH and no degradation of rat collagen at pH 8.0
cathepsin D (R&D systems, activated)	Cathepsins B, D and S showed some slight degradation of rat collagen at the manufacture specified pH and no degradation of rat collagen at pH 8.0
Histidine (His)-tagged purified recombinant human cathepsin-L (R&D Systems, Cat# 952-CY)	cathepsin-L was the only enzyme that was active at pH 5.0, but not at pH 8.0
